The results in this text go back to patent US20090181003.

Data set [1] addresses recombinant S6K2 (highly purified).
The target of data set [2] is recombinant S6K1 (highly purified).

Chain of recombinant S6K2 (highly purified) (chain, as listed by the source): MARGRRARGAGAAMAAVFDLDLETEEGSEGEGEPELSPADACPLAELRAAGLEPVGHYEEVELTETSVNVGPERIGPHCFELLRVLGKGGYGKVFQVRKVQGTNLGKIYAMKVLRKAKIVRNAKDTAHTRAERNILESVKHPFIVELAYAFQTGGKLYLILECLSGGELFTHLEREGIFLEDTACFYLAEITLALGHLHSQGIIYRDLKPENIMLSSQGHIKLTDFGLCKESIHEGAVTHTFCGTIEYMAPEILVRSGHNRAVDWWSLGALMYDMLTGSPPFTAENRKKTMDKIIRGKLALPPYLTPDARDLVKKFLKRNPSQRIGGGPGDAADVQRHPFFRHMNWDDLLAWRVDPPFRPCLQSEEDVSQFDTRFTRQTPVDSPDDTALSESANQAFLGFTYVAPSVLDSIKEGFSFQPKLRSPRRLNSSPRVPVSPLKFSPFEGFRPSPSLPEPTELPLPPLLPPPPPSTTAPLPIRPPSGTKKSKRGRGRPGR
Chain of GST [GST: P08515] (P08515 whole entry): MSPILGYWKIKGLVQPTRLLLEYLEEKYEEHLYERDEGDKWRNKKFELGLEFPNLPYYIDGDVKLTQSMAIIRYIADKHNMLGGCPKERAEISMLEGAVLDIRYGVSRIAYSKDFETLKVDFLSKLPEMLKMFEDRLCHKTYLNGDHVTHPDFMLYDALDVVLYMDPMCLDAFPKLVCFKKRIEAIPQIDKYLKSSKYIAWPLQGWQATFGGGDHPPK

B1: GST-p300 HAT domain 4 (protein)
chain: KPKRLQEWYKKMLDKAVSERIVHDYKDIFKQATEDRLTSAKELPYFEGDFWPNVLEESIKELEQEEEERKREENTSNESTDVTKGDSKNAKKKNNKKTSKNKSSLSRGNKKKPGMPNVSNDLSQKLYATMEKHKEVFFVIRLIAGPAANSLPPIVDPDPLIPCDLMDGRDAFLTLARDKHLEFSSLRRAQWSTMCMLVELHTQSQDRFVYTCNECKHHVETRWHCTVCEDYDLCITCYNTKNHDHKMEKLGLGLDDESNNQQAAATQSPGDSRRLSIQRCIQSLVHACQCRNANCSLPSCQKMKRVVQHTKGCKRKTNGGCPICKQLIALCCYHAKHCQENKCPVPFCLNIKQKLRQQQLQHRLQQAQMLRRRMASMQRTGVVGQQQGLPSPTPATPTTPTGQQPTTPQTPQPTSQPQPTPPNSMPPYLPRTQA
Take B1: the “in vitro acetylation (incorporation of 14C labelled acetyl groups, autoradiography)” value is “when S6K1 and S6K2 were incubated in the presence of GST-p300 HAT domain 4 or GST-P/CAF, ^14C labeled acetyl groups were indeed incorporated into the proteins” in data set [1]; “when S6K1 and S6K2 were incubated in the presence of GST-p300 HAT domain 4 or GST-P/CAF, ^14C labeled acetyl groups were indeed incorporated into the proteins” in data set [2]. Also, the in vitro acetylation result in the data set with GST [GST: P08515] is reported as “no acetylation of GST is seen under these conditions”.

B2: GST-P/CAF (protein)
chain: MSEAGGAGPGGCGAGAGAGAGPGALPPQPAALPPAPPQGSPCAAAAGGSGACGPATAVAAAGTAEGPGGGGSARIAVKKAQLRSAPRAKKLEKLGVYSACKAEESCKCNGWKNPNPSPTPPRADLQQIIVSLTESCRSCSHALAAHVSHLENVSEEEMNRLLGIVLDVEYLFTCVHKEEDADTKQVYFYLFKLLRKSILQRGKPVVEGSLEKKPPFEKPSIEQGVNNFVQYKFSHLPAKERQTIVELAKMFLNRINYWHLEAPSQRRLRSPNDDISGYKENYTRWLCYCNVPQFCDSLPRYETTQVFGRTLLRSVFTVMRRQLLEQARQEKDKLPLEKRTLILTHFPKFLSMLEEEVYSQNSPIWDQDFLSASSRTSQLGIQTVINPPPVAGTISYNSTSSSLEQPNAGSSSPACKASSGLEANPGEKRKMTDSHVLEEAKKPRVMGDIPMELINEVMSTITDPAAMLGPETNFLSAHSARDEAARLEERRGVIEFHVVGNSLNQKPNKKILMWLVGLQNVFSHQLPRMPKEYITRLVFDPKHKTLALIKDGRVIGGICFRMFPSQGFTEIVFCAVTSNEQVKGYGTHLMNHLKEYHIKHDILNFLTYADEYAIGYFKKQGFSKEIKIPKTKYVGYIKDYEGATLMGCELNPRIPYTEFSVIIKKQKEIIKKLIERKQAQIRKVYPGLSCFKDGVRQIPIESIPGIRETGWKPSGKEKSKEPRDPDQLYSTLKSILQQVKSHQSAWPFMEPVKRTEAPGYYEVIRFPMDLKTMSERLKNRYYVSKKLFMADLQRVFTNCKEYNPPESEYYKCANILEKFFFSKIKEAGLIDK
For the protein B2, the “in vitro acetylation (incorporation of 14C labelled acetyl groups, autoradiography)” value is “when S6K1 and S6K2 were incubated in the presence of GST-p300 HAT domain 4 or GST-P/CAF, ^14C labeled acetyl groups were indeed incorporated into the proteins” in data set [1]; “when S6K1 and S6K2 were incubated in the presence of GST-p300 HAT domain 4 or GST-P/CAF, ^14C labeled acetyl groups were indeed incorporated into the proteins” in data set [2].
